# System: Escherichia coli TOP10
# Assay: shrunken log2 fold change of peptide-encoding DNA abundance (4.5 h post-induction vs induction); higher = less antimicrobial activity (less host growth inhibition)
# Conditions: time post-induction: 4.5 h; library: site-saturation at positions 5, 18, 19, 20
# 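Also: peptides expressed intracellularly from a pBAD plasmid library in pooled LB shake-flask culture, induced with 0.3% L-arabinose, DNA abundance read by NGS, three biological replicates, DESeq2 with apeglm shrinkage.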
row,Sequence,shrunken log2 fold change
1,RRIRTRPPRLPRPRPRPHPDPRP,-0.00834
2,RRIRKRPPRLPRPRPRPNYHPRP,-0.331
3,RRIRFRPPRLPRPRPRPFTDPRP,-0.0297
4,RRIRDRPPRLPRPRPRPYVGPRP,-0.0122
5,RRIRMRPPRLPRPRPRPPPTPRP,1.97
6,RRIRERPPRLPRPRPRPTVWPRP,0.217
7,RRIRGRPPRLPRPRPRPWWRPRP,0.626
8,RRIRTRPPRLPRPRPRPLYLPRP,-0.558
9,RRIRARPPRLPRPRPRPSIWPRP,0.352
10,RRIRWRPPRLPRPRPRPGCNPRP,-0.0626
11,RRIRIRPPRLPRPRPRPVDQPRP,-0.0969
12,RRIRLRPPRLPRPRPRPHWGPRP,0.0796
13,RRIRDRPPRLPRPRPRPCHVPRP,-0.0466
14,RRIRCRPPRLPRPRPRPFCWPRP,0.31
15,RRIRARPPRLPRPRPRPEQPPRP,0.343
16,RRIRHRPPRLPRPRPRPSTMPRP,-0.493
17,RRIRDRPPRLPRPRPRPDAPPRP,0.788
18,RRIRARPPRLPRPRPRPLNWPRP,0.245
19,RRIRERPPRLPRPRPRPVPYPRP,-0.132
20,RRIRNRPPRLPRPRPRPTVNPRP,-0.382
21,RRIRVRPPRLPRPRPRPTLLPRP,-0.196
22,RRIRLRPPRLPRPRPRPPGRPRP,0.66
23,RRIRPRPPRLPRPRPRPVDAPRP,0.173
24,RRIRCRPPRLPRPRPRPLRVPRP,0.0985
25,RRIRGRPPRLPRPRPRPYFQPRP,-0.161

row,Sequence,shrunken log2 fold change
1,RRIRNRPPRLPRPRPRPDMTPRP,-0.287
2,RRIRTRPPRLPRPRPRPNSTPRP,-0.363
3,RRIRPRPPRLPRPRPRPLKTPRP,-0.000587
4,RRIRHRPPRLPRPRPRPNWIPRP,-0.19
5,RRIRWRPPRLPRPRPRPVKAPRP,0.284
6,RRIRDRPPRLPRPRPRPEEKPRP,0.766
7,RRIRPRPPRLPRPRPRPWMHPRP,0.0123
8,RRIRDRPPRLPRPRPRPVVHPRP,0.0965
9,RRIRCRPPRLPRPRPRPKAGPRP,0.251
10,RRIRERPPRLPRPRPRPKHGPRP,-0.017
11,RRIRARPPRLPRPRPRPPAKPRP,1.12
12,RRIRRRPPRLPRPRPRPEVPPRP,0.0172
13,RRIRARPPRLPRPRPRPCRSPRP,-0.0342
14,RRIRKRPPRLPRPRPRPLAFPRP,0.278
15,RRIRCRPPRLPRPRPRPARHPRP,0.061
16,RRIRRRPPRLPRPRPRPNMPPRP,-0.342
17,RRIRARPPRLPRPRPRPNHPPRP,-0.0147
18,RRIRKRPPRLPRPRPRPRMFPRP,0.112
19,RRIRARPPRLPRPRPRPELAPRP,1.39
20,RRIRKRPPRLPRPRPRPFTCPRP,0.182
21,RRIRYRPPRLPRPRPRPNVSPRP,-0.0178
22,RRIRLRPPRLPRPRPRPQRTPRP,0.43
23,RRIRIRPPRLPRPRPRPLAQPRP,-0.116
24,RRIRNRPPRLPRPRPRPVGSPRP,0.0409
25,RRIRTRPPRLPRPRPRPWIYPRP,-0.0134

row,Sequence,shrunken log2 fold change
1,RRIRNRPPRLPRPRPRPHITPRP,-0.399
2,RRIRPRPPRLPRPRPRPPGGPRP,0.968
3,RRIRARPPRLPRPRPRPHCWPRP,0.17
4,RRIRKRPPRLPRPRPRPVDQPRP,0.766
5,RRIRERPPRLPRPRPRPTCRPRP,-0.146
6,RRIRLRPPRLPRPRPRPDVFPRP,-0.165
7,RRIRGRPPRLPRPRPRPHICPRP,-0.0626
8,RRIRTRPPRLPRPRPRPVVQPRP,-0.062
9,RRIRRRPPRLPRPRPRPVHVPRP,0.0562
10,RRIRERPPRLPRPRPRPANDPRP,-0.0189
11,RRIRVRPPRLPRPRPRPELDPRP,0.183
12,RRIRMRPPRLPRPRPRPDMTPRP,-0.05
13,RRIRRRPPRLPRPRPRPHQEPRP,-0.0374
14,RRIRTRPPRLPRPRPRPNGMPRP,-0.245
15,RRIRRRPPRLPRPRPRPTWWPRP,0.57
16,RRIRTRPPRLPRPRPRPHILPRP,-0.00363
17,RRIRERPPRLPRPRPRPLAFPRP,-0.0552
18,RRIRPRPPRLPRPRPRPQPKPRP,0.147
19,RRIRNRPPRLPRPRPRPHMNPRP,-0.572
20,RRIRRRPPRLPRPRPRPITIPRP,0.035
21,RRIRARPPRLPRPRPRPCPVPRP,0.0768
22,RRIRLRPPRLPRPRPRPDQMPRP,-0.0132
23,RRIRERPPRLPRPRPRPEFLPRP,0.26
24,RRIRSRPPRLPRPRPRPFMTPRP,-0.328
25,RRIRRRPPRLPRPRPRPKCFPRP,0.445

row,Sequence,shrunken log2 fold change
1,RRIRHRPPRLPRPRPRPKWLPRP,0.333
2,RRIRHRPPRLPRPRPRPQISPRP,-0.0457
3,RRIRSRPPRLPRPRPRPPFFPRP,0.143
4,RRIRWRPPRLPRPRPRPQSFPRP,-0.108
5,RRIRYRPPRLPRPRPRPLPQPRP,-0.0827
6,RRIRWRPPRLPRPRPRPDEFPRP,0.196
7,RRIRPRPPRLPRPRPRPDYSPRP,-0.815
8,RRIRHRPPRLPRPRPRPANHPRP,-0.262
9,RRIRQRPPRLPRPRPRPRLRPRP,0.44
10,RRIRVRPPRLPRPRPRPCYDPRP,0.0557
11,RRIRERPPRLPRPRPRPWNSPRP,0.0019
12,RRIRFRPPRLPRPRPRPVDQPRP,0.0138
13,RRIRRRPPRLPRPRPRPTDYPRP,-0.00271
14,RRIRTRPPRLPRPRPRPNPEPRP,-0.101
15,RRIRHRPPRLPRPRPRPRYQPRP,-1.18
16,RRIRDRPPRLPRPRPRPWVKPRP,0.0766
17,RRIRERPPRLPRPRPRPKVSPRP,-0.205
18,RRIRQRPPRLPRPRPRPFKTPRP,-0.0381
19,RRIRPRPPRLPRPRPRPHLRPRP,0.151
20,RRIRCRPPRLPRPRPRPKGPPRP,0.348
21,RRIRMRPPRLPRPRPRPQNIPRP,-0.726
22,RRIRARPPRLPRPRPRPHFMPRP,0.787
23,RRIRMRPPRLPRPRPRPFSDPRP,-0.0199
24,RRIRNRPPRLPRPRPRPEGSPRP,-0.0385
25,RRIRQRPPRLPRPRPRPASPPRP,-0.0456

row,Sequence,shrunken log2 fold change
1,RRIRDRPPRLPRPRPRPPIHPRP,-0.487
2,RRIRTRPPRLPRPRPRPLTCPRP,-0.809
3,RRIRVRPPRLPRPRPRPTQNPRP,0.693
4,RRIRARPPRLPRPRPRPDQIPRP,0.327
5,RRIRWRPPRLPRPRPRPTPRPRP,0.851
6,RRIRIRPPRLPRPRPRPKGTPRP,0.0146
7,RRIRSRPPRLPRPRPRPDRSPRP,-0.0187
8,RRIRNRPPRLPRPRPRPLTCPRP,-0.149
9,RRIRNRPPRLPRPRPRPAQTPRP,-0.0137
10,RRIRWRPPRLPRPRPRPSVLPRP,-0.225
11,RRIRTRPPRLPRPRPRPCFFPRP,-0.202
12,RRIRDRPPRLPRPRPRPVQKPRP,-0.0131
13,RRIRRRPPRLPRPRPRPWYGPRP,-0.263
14,RRIRVRPPRLPRPRPRPKFEPRP,0.12
15,RRIRCRPPRLPRPRPRPDYMPRP,-0.133
16,RRIRPRPPRLPRPRPRPPVMPRP,0.303
17,RRIRRRPPRLPRPRPRPGCEPRP,0.354
18,RRIRLRPPRLPRPRPRPNYMPRP,-0.251
19,RRIRDRPPRLPRPRPRPACYPRP,-0.142
20,RRIRQRPPRLPRPRPRPNYKPRP,-0.545
21,RRIRTRPPRLPRPRPRPEEMPRP,0.133
22,RRIRMRPPRLPRPRPRPDWSPRP,-0.0229
23,RRIRHRPPRLPRPRPRPGDYPRP,-0.212
24,RRIRCRPPRLPRPRPRPCDKPRP,-0.266
25,RRIRNRPPRLPRPRPRPSFWPRP,-0.056
